B1: Phospholipase D alpha 1 (Arabidopsis thaliana (Mouse-ear cress)), Q38882 (parent)
chain: MAQHLLHGTLHATIYEVDALHGGGVRQGFLGKILANVEETIGVGKGETQLYATIDLQKARVGRTRKIKNEPKNPKWYESFHIYCAHLASDIIFTVKDDNPIGATLIGRAYIPVDQVINGEEVDQWVEILDNDRNPIQGGSKIHVKLQYFHVEEDRNWNMGIKSAKFPGVPYTFFSQRQGCKVSLYQDAHIPDNFVPRIPLAGGKNYEPQRCWEDIFDAISNAKHLIYITGWSVYAEIALVRDSRRPKPGGDVTIGELLKKKASEGVRVLLLVWDDRTSVDVLKKDGLMATHDEETENFFRGSDVHCILCPRNPDDGGSIVQSLQISTMFTHHQKIVVVDSEMPSRGGSEMRRIVSFVGGIDLCDGRYDTPFHSLFRTLDTVHHDDFHQPNFTGAAITKGGPREPWHDIHSRLEGPIAWDVMYNFEQRWSKQGGKDILVKLRDLSDIIITPSPVMFQEDHDVWNVQLFRSIDGGAAAGFPESPEAAAEAGLVSGKDNIIDRSIQDAYIHAIRRAKDFIYVENQYFLGSSFAWAADGITPEDINALHLIPKELSLKIVSKIEKGEKFRVYVVVPMWPEGLPESGSVQAILDWQRRTMEMMYKDVIQALRAQGLEEDPRNYLTFFCLGNREVKKDGEYEPAEKPDPDTDYMRAQEARRFMIYVHTKMMIVDDEYIIIGSANINQRSMDGARDSEIAMGGYQPHHLSHRQPARGQIHGFRMSLWYEHLGMLDETFLDPSSLECIEKVNRISDKYWDFYSSESLEHDLPGHLLRYPIGVASEGDITELPGFEFFPDTKARILGTKSDYLPPILTT

Variants of: B1
Conditions: with xlg3_arath XLG3, Q9C516

Effect of a mutation on the interaction, decreasing interaction:
F565A
E563A
K564A
